This assay addresses SNAP-25 (rat) (UniProt P60881).

Turning to WGA-LHN/A conjugate (enzyme), the IC50, inhibition of glycine release from eSC neurons (3 days) (microgrammes/ml) was 0.06 and the IC50, inhibition of substance P release from eDRG neurons (3 days) (microgrammes/ml) was 0.34.
